The source of these data is PMC9888390, “A non-neutralizing glycoprotein B monoclonal antibody protects against herpes simplex virus disease in mice” (The Journal of Clinical Investigation, 2023).

Assay [1] has as its target T1, Recombinant HSV-1 glycoprotein B, soluble ectodomain (Human herpesvirus 1, strain  …, UniProt P06437).
T1 construct: glycoprotein B of herpes simplex virus 1, soluble ectodomain, postfusion state; The printed limits 31-70 are perhaps a misprint of 31-730 (surmised). 'epo' in the name is perhaps a foreign signal peptide (surmised); also called gB; gB-1; not shown: His tag, C-terminal, kept
The assay can be described thus: Luminex bead binding assay; HSV-1 gB coupled to carboxylated beads; rAbs serially diluted from 2 μg/mL (3-fold, 11 dilutions) in PBS with 1% BSA, 0.05% NaN3, 0.05% Tween-20 and 1% milk, 2 hours; detected with PE-conjugated goat anti-mouse IgG. Particulars: both partners purified.

Assay [2] concerns the target T1, Recombinant HSV-1 glycoprotein B, …. Put plainly: cryo-EM structure; gB 2.5 mg/mL with a 2-fold molar excess of Fab (3 mg/mL), 0.08% n-octyl-β-D-glucoside; Titan Krios 300 keV, K3 detector; gB in the postfusion state. To be noted: both partners purified.
In assay [3] the target is T2, glycoprotein B of HSV-2(4674), from infected Vero cells (Human herpesvirus 2, clinical isolate …, UniProt P08666, strain).
T2 construct: glycoprotein B of herpes simplex virus 2, clinical isolate 4674, as made in infected cells; Seen as a band of about 100 kDa or about 116 kDa on a reducing gel; also called gB; monomeric gB; source: Vero cells infected with HSV-2(4674), in lysate
Put plainly: Western blot; HSV-2(4674)-infected or uninfected Vero cell lysates (10 μg per lane) separated by PAGE with β-mercaptoethanol, blotted and probed with BMPC-23 (10 μg/mL) overnight; anti-mouse IgG-HRP. Particulars: one partner purified.

Assay [4] deals with glycoprotein B of HSV-2(G), from infected HaCaT cells (Human herpesvirus 2, strain G, UniProt A0A0D4CHI5, strain). Put plainly: affinity purification with mass spectrometry; RIPA lysate of HSV-2(G)-infected HaCaT cells incubated overnight at 4°C with 1 mg/mL mAb; Protein A resin; elution with glycine-HCl pH 2.5-3.0; SDS-PAGE, in-gel trypsin digestion, nano-LC-MS/MS. To be noted: one partner purified.

In assay [5] the target is T1, Recombinant HSV-1 glycoprotein B, …. The assay can be described thus: BLI; OctetRed96; gB (C-terminal His tag) captured on anti-His (HIS2) biosensors at 1 ng/μL, dipped into increasing concentrations of BMPC-23 Fab; 1:1 binding model; apparent KD derived from on and off rates. To be noted: both partners purified. Background: In BLI a coated tip is dipped into the sample, and binding shifts an interference pattern.

B1: HSV010-13 recombinant mouse IgG (antibody, V domains shown)
VH: QVQLQQPGAELVKPGASVKLSCKASGYTFTSYWIHWVKQGPGQGLEWIGMIHPNSGITHYNEKFKTKATLTVDKSSSTAYMQLSSLTSEDSAVCYCARGSSSGSAWFAYWGQGTLVTVSA
VL: DIQMTQSSSYLSESLGGRVTITCKASDHINNWLAWYQQKPGNAPRLLISGATSLETGVPSRFSGSGSGKDYTLSITSLQTEDVATYYCQQYWSSPLTFGAGTKLELK
notes: VH of HSV010-13 (germinal center B cell of a ΔgD-2-vaccinated C57BL/6 mouse); VL of HSV010-13; Member of a clonal lineage of five (HSV010-6, -9, -13, -14, -15); source: Expi293F, transient transfection, purified from culture supernatant (protein G spin columns); copies: 2 + 2
Take B1: the binding result in assay [1] is “binds”.

B2: HSV010-13 Fab (Fab, V domains shown)
VH: B1 VH
VL: B1 VL
notes: Fab part of the heavy chain of m5; as the light chain of m5; The methods tell how the Fab was made only for BMPC-23; also called Fab fragment of HSV010-13
For the molecule B2, the binding result in assay [2] is “binds”.

B3: BMPC-23 recombinant mouse IgG (antibody, V domains shown)
VH: QVQLQQSGPELVKPGASVKLSCKASGYSFTTYDINWVKERPGQGLEWIGWIYPREGSTNYNEKFRGKATLTADTSSSTAYMELHSLTSEDSAVYFCATYGSSRYYTMDYWGQGTSVTVSS
VL: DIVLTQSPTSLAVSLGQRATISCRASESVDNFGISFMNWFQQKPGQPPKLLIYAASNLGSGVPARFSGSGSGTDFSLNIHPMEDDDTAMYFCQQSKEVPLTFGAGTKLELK
notes: VH of BMPC-23 (bone marrow plasmacyte of a ΔgD-2-vaccinated C57BL/6 mouse); mouse IgG1 or IgG2c constant region from the expression vector; VL of BMPC-23; Cloned into both mouse IgG1 and IgG2c vectors; also called BMPC-23 (IgG2c); mIgG2c BMPC-23; source: Expi293F, transient transfection, purified from culture supernatant (protein G spin columns); copies: 2 + 2
Turning to B3, the binding result in assay [1], in assay [3] and in assay [4] was “binds” throughout.

B4: BMPC-23 Fab (Fab, V domains shown)
VH: B3 VH
VL: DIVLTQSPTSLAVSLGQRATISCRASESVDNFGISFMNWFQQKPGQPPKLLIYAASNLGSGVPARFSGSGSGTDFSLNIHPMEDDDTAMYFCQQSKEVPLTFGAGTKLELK
notes: as the heavy chain of m1 up to the papain cut; as the light chain of m1; also called Fab of BMPC-23; Fab portion of BMPC-23; source: from intact BMPC-23 (Expi293F) by cleavage with immobilized papain; purified by subtractive protein A chromatography
B4: the Kd in assay [5] is 10 nM.
